Experimental findings from patent US20180044416A1 are described below.

The target in this assay is human FcRn with human beta2M on MDCK II clone 15 cells (human) (UniProt P55899). In words: cell-based or functional assay.
Chain of UniProt P55899 (P55899 24-365, chain 1 of 2): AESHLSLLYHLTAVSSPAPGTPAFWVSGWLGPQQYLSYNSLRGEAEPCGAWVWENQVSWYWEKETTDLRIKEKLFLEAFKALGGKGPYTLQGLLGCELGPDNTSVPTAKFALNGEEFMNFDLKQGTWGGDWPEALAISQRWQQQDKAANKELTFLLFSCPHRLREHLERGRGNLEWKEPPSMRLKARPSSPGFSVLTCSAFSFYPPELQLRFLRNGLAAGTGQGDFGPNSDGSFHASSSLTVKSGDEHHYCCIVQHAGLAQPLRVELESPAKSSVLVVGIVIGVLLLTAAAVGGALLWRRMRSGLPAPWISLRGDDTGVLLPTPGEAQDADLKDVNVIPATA
Chain of UniProt P55899 (P61769 21-119, chain 2 of 2, further chain): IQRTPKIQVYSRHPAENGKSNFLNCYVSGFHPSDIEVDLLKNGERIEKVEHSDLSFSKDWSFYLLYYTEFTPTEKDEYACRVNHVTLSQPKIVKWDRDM
As to IgG1 IgM tail-piece, H310L (Fc fusion), the Blockade of IgG recycling, maximal inhibition amounted to 45%.

IgG1 IgM tail-piece, T307A (Fc fusion): the Blockade of IgG intracellular uptake EC50 was found to be 0.54 µg/mL and the Blockade of IgG recycling EC50 is 0.35 µg/mL.

Turning to IgG1 IgM tail-piece, V308F (Fc fusion), the Blockade of IgG intracellular uptake EC50 was determined as 0.12 µg/mL and the Blockade of IgG recycling EC50 was 0.073 µg/mL.

Substance IgG1 IgM tail-piece, V308P (Fc fusion) displayed a Blockade of IgG intracellular uptake EC50 of 0.34 µg/mL and a Blockade of IgG recycling EC50 of 0.55 µg/mL.

Substance IgG4 IgM tail-piece, T307A (Fc fusion) showed a Blockade of IgG intracellular uptake EC50 of 0.5 µg/mL.

The substance IgG4 IgM tail-piece, V308F (Fc fusion) yielded a Blockade of IgG intracellular uptake EC50 of 0.42 µg/mL and a Blockade of IgG recycling EC50 of 0.56 µg/mL.

In turn, IgG4 IgM tail-piece, V308P (Fc fusion) displayed a Blockade of IgG intracellular uptake EC50 of 0.51 µg/mL and a Blockade of IgG recycling EC50 of 0.42 µg/mL.
